{"source": "paper PMC6404586", "key": {"C3d (human) [1]": {"biological_target": "C3d (human) (UniProt P01024)", "sequence (P01024 1002-1303)": "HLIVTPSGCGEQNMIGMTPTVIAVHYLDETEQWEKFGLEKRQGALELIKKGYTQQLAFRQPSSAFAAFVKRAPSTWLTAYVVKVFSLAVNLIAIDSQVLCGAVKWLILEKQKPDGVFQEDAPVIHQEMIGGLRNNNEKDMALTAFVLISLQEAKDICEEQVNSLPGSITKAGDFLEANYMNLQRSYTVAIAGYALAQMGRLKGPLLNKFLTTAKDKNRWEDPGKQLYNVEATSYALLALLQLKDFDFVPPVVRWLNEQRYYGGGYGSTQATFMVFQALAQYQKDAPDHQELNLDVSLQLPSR", "assay": "SEC; CIP and C3d loaded separately or mixed in equimolar concentration onto a Superdex column; MW from a calibration curve"}, "C3d (human) [2]": {"biological_target": "C3d (human) (UniProt P01024)", "assay": "SPR; BIAcore X100; C3d covalently immobilised on CM5 chip (250 response units); CIP 0.0390-5 μM flowed; PBS with 0.005% Tween 20; 22°C; 1:1 Langmuir model; apparent Kd"}, "C3b (human)": {"biological_target": "C3b (human) (UniProt P01024)", "assay": "ELISA; 100 ng of C3, C3b or C3d coated; increasing concentrations of CIP; anti-CIP antibody; apparent Kd as reciprocal of fitted Ka"}, "C3d (human) [3]": {"biological_target": "C3d (human) (UniProt P01024)", "assay": "ELISA; 100 ng of C3, C3b or C3d coated; increasing concentrations of CIP; anti-CIP antibody; apparent Kd as reciprocal of fitted Ka"}, "complement C3 (human)": {"biological_target": "complement C3 (human)", "assay": "ELISA; 100 ng of C3, C3b or C3d coated; increasing concentrations of CIP; anti-CIP antibody; apparent Kd as reciprocal of fitted Ka"}}}
{"substance": "complement interfering protein (CIP) (natural protein)", "values": [{"measurement": "stoichiometry N", "setting": "C3d (human) [1]", "result": 1}, {"measurement": "Kd", "setting": "C3d (human) [2]", "result": 79, "unit": "nM"}, {"measurement": "koff", "setting": "C3d (human) [2]", "result": 0.00085, "unit": "s⁻¹"}, {"measurement": "kon", "setting": "C3d (human) [2]", "result": 10800, "unit": "M⁻¹ s⁻¹"}, {"measurement": "Kd", "setting": "C3b (human)", "result": 82.4, "unit": "nM"}, {"measurement": "Kd", "setting": "C3d (human) [3]", "result": 76, "unit": "nM"}, {"measurement": "Kd", "setting": "complement C3 (human)", "result": 84.8, "unit": "nM"}]}
